The NTF2 design screens of Basanta et al. (2020)

assay: protease stability score; higher = more stable; yeast display proteolysis, trypsin and chymotrypsin;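 note: log10 excess protease needed over predicted unfolded state with 0 meaning unfolded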

Point of comparison: “DPKKAFKVAEEAMKYFVKGNVDELKKILNPDGTARVADHETKGVEEIMKLLQRMKKHGVQVEVKEVRREGNQVEVHTVYHDGDETATLTVQYKAQNGKVDHIKVQYNERMKKIWEKG”, protease stability score 1.2. Against it:
- DNRLQRWADRWLEVVETGNPEEIRKLVDKDVDVEIGDQQYKGQDHLSKQWKDFHKHAKLEIKDYKIDVEGDRLVINVDAVYNVNGQPRRNRYNLEFKLHNGKVRSVHFRIDPDEQRKMDS — higher, 1.44
- DNSELAQQRWRDLRKAISENDPKTARDLFDPNVRIEVGEKTLHGRKAASDFVKEIKKDYDHAYLQVTDVDVQGEHVHAHVVLHAEHNGKTTSVEMEMEAVFQGDKLRVRMMRKS — lower, 0.641
- DNSVKKIVEEFWKAVKHGDPDKLRELADPNAKFDVGDKVLHGRDRAAKFLHDQHNNARFDITSLRIRVTNGRADIDVKLHVEHNGEPKTSSAKVIVRVRNGRMTELKIRERS — lower, 0.637
- DNTHLRMMEQLLKNRSTGDERKVRENADKHVKIDVGDKRLHGREHLQKQQESERTQADVEIQVQTIHDHNGQIVMQFEITVNVNGRPERDTWTLVAEADNGRLKKLSLDLDPDKLKTMES — lower, 0.327
- DNTIKRKFHDLIRAWQTNDENRYMQLFDPNVKIRVGNQQFHGREDWSKWFREQMTHLRNDFTVKSLEVDGDKVVADIVAVLSINGRPNKMRVDYRMTVHNGKIKSAEMRFSHEIETKIEQ — higher, 1.46
- DPKKAHEVAEEVMKAFVNGNDEQVKRLLKPDVTAKVADRETQGPEQIVRYLRRFDKLGVQYHEEETRKEGNRVEVHTKYKKGDQEATVTVVYEADNGKVDRIEVRYDEEMKKLFEKG — lower, 0.279
- DPKKDLKVAEEVLKAMYSGDDEKAQKLVDPSVKAQTGDQKYHGTDDIKKMVKTFKDYGVEHEEKETKVDGGYAEVVIQAKIGNDEVEAKWRVYAKDGRVDYVQADITEKLTKLMQHG — lower, -0.445
- DPKKFHKAAVLLAQAAMNGDYKRVVELYKPDARLTLVDQEVQGQEQIKKHAKKFYDRGKRFQFKRVEVTGDYVKLQFDIEVGGTRVTFEARVHAQDDTVDEYELRFDDTAREMQERG — lower, 0.073
- DPKKLKEAVEKVIQAMEKGNVEEVVKLYKPDVKFVLGDQEFRGREDVKKQAKKFYTKGARFQLRKVEVKGDKVEVVVDVEVGGTRKTFKFTLKVEDDTVDEYEIRFTEEAKKAKEKG — lower, 0.839
- DPKKLYKVAIRVVRAAVSGDVEKVVKMYKPDGKLTLGDQELRGREQIKKYADKFYRKGKRFQADHIRVTGNRVEVIMKFTLGGQTVTFQFYIKLKDDQVDEYEFRFNEEAEKMMRTG — lower, 0.276
- DPKKMKEIADKMAKAVLNGNEEEVKKFGAPNVEAEVADQRTQGVDEIVKMLQKVKRMGMEVHTEEKREEGDFIEVHTKYRRGDTEATMTVQYYADNGKVKKIKVEYDRDAKKLFKHG — lower, 0.232
- DPKKVEDVAKKVAKAFQDGNEEELKKHLDPTGRAKIADEETQGIEQIIKKLKKVMKLGVQVENKETRYEGNRVEFHTEYRDGDKQATMTVVYHADNGKVKEIRVQYDRDAKEMYEKG — lower, 0.658
- DPKRTVKVAEEAAKILYNGDSDKAKKVFKPDLRVKIADRETQGVEQIVKELEKFQKIGVERETKEKRTEGDKVQFHTVYRNGSDQAKMTVEYQAKDGKVDRIQVDYDEKAKKIQEDG — lower, -0.407
- DPKRVRQVAKEVAKAFLNGDKDKVKKYGDPNVKAKVLDEETQGVEQIMRELEKFMKLGVQYETKEVREEGDYVEVHTEYRDGDTTAKMTVIYKARDGKVEHLEVHYDRDARKIFRKG — lower, 0.144
- DPRKVKDAVRKVVEAMMNGDVEKIVKLYKPDGELYLGSQKVRGQEQVEKEAKKFYDKGARFQVKEQHVKGDNATVVFDMTANGQTVTFQFEIKVKDDTVDKYEVRFTEKADELRRKG — lower, -0.136
- DPTELLKYAEKLLEALMKGDSELATKMGKPDVEVQTGDQKYKGQDDLRKVVKKIKDYGVENKIDETEKDGGQVKVKIVARIGDREYTFTWVAEAENGKVRKVQLDIPEDLEKDLKHG — lower, 0.739
- DPTKALRLADTALRAFANGNSDQVKQHLKPDVRARVVDEETQGVDQIVKQLQHFVKVGVQRQVDEVRHEGNQVEAHTQYQVGDNQATMTVVYRAQNGKVDEIEVRYDERAKKIFEQG — lower, -0.115
- DPTKVDHVARRVLEYMVKGNAEEVRKMVKPNAEAQTGDQKYKGQDEIHKMVKTLKDYGIEVKRDEVRVDGGHAQLKIRANIGDRTYTARWQVEAKDGKVDRIQMDISEDLKKAIKHG — lower, -0.022
